Reference: paper PMC9351184, “Survey of the binding preferences of RNA-binding proteins to RNA editing events”

What was measured:
hnRNPC dsRBD = hnRNPC dsRBD (Homo sapiens, UniProt P07910 16-57); assay: EMSA; 1 uM labelled RNA, 3 uM protein, 10 ul, on ice 45 min; 6% PAGE in 0.5x TBE (gel pre-run at 4 C); binding buffer, salt and pH not stated (proteins dialyzed in 25 mM Tris-HCl pH 8.0, 150 mM NaCl; final elution from cation exchange/heparin up to 1 M NaCl, then SEC); details: protein: recombinant; tags: 10xHis (pSUMOH10), removed with TEV; label: 5' DY781
Sequence of hnRNPC dsRBD (P07910 16-57): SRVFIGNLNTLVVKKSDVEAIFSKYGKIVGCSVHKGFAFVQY

ILF3 dsRBD = biological target: T1, ILF3 dsRBD (Homo sapiens, UniProt Q12906 398-590); assay: as above; details: protein: recombinant; tags: N-terminal GST (pGood6p), removed with TEV; label: 5' DY781
T1 sequence: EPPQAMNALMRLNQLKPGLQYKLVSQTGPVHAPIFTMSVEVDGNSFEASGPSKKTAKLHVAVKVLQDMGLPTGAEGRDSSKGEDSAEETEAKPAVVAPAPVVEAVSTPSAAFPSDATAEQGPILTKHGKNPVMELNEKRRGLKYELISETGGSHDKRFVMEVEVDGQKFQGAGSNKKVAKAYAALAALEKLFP

**Q.** Does AGUGGCUUAUGCCUGUGAUCCCAACAC (ssRNA, A-to-I editing site represented by G as printed (A/G); inosine not stated) [edited RNA] bind (hnRNPC dsRBD)?
**A.** binds

**Q.** Does AGUGGCUUAUGCCUGUGAUCCCAACAC (ssRNA, A-to-I editing site represented by G as printed (A/G); inosine not stated) [edited RNA] bind (ILF3 dsRBD)?
**A.** binds
